This is an account of results in patent publication US20130039916A1 (Merck Sharp & Dohme, published 2013).

In assay [1] the target is T1, "Non-linked" human IL-23 (human p40 coexpressed in 293T cells with human p19:FLAG-tag peptide) (human, UniProt P29460 23-328).
T1 sequence 1: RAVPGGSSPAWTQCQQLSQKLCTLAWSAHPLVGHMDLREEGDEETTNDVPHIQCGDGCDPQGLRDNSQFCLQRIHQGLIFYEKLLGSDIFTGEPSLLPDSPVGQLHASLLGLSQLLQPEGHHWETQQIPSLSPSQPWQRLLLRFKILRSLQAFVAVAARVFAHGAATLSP
T1 sequence 2: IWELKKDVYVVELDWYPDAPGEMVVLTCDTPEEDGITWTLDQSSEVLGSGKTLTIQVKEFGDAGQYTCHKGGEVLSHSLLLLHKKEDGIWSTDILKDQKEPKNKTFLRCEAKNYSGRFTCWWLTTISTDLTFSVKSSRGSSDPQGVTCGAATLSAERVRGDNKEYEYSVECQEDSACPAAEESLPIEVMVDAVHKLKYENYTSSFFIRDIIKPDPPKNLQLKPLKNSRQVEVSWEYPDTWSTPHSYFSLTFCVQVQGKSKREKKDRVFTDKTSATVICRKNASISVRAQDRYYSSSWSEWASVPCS
The assay can be described thus: cell-based or functional assay.

In assay [2] the target is T2, human IL-23 (form not stated) (human, UniProt P29460 23-328).
T2 sequence 1: T1 sequence 1
T2 sequence 2: T1 sequence 2
The assay can be described thus: cell-based or functional assay.

Where a chain is given by its changes, count along the chain named.

B1: mouse anti-human IL-23p19 antibody 17G8 (antibody, V domains shown)
VH: QAQLQQSGSELARPGASVKLSCKASGYTFTSYGIKWVKQRTGQGLEWIGEIFPRSGQTIYNENFKGKATLTADKSSSTAYMELRSLTSEDSAVYFCAANWDLDYWGQGTILTVSS
VL: DIMMTQSPATLSVTPGDRVSLSCRASQSISDYLHWYRQKSHESPRLLIKYASQSISGIPSRFSGSGSGSDFTLSINSVEPEDVGIYYCQNGHSFPYTFGGGTKLEIKR
On to B1, for which, in assay [1], the “IC50 (pM), blocking of Ba/F3 cell proliferation” value (shortened to “IC50 (pM), blocking”) turned out to be 3 pM. Besides, the “Splenocyte assay IC50 (IL-17 production by mouse splenocytes)” value (from here on “Splenocyte assay IC50”) in assay [2] came to 0.018 nM.

B2: mouse anti-human IL-23p19 antibody 18E1 (antibody, V domains shown)
VH: EVQLQQSGPELVKPGASVKMSCKASGNTFTRYVMNWVKQKPGQGLEWIGYINPYNDGTNYNEKFKGKATLTSDKSSTTAYMELSSLTSEDSAVYYCVHNWDLDYWGQGTTLTVSS
VL: B1 VL with M3V, D31H, H34Y, R37Q, I85M
Turning to B2, the “IC50 (pM), blocking” value in assay [1] stood at 48 pM. In addition, in assay [2], the “Splenocyte assay IC50” value turned out to be 0.092 nM.

B3: mouse anti-human IL-23p19 antibody 3C4 (antibody, V domains shown)
VH: B1 VH with A2V, S9G, T41F, S55G, Q57N, I59Y, N63K, A97T, I110T
VL: B1 VL with M3V, R37Q, P80S, I85V, Y96F, G100S, E105K
As to B3, in assay [1], the “IC50 (pM), blocking” value came to 12 pM. In addition, the “Splenocyte assay IC50” value in assay [2] turned out to be 0.014 nM.

B4: mouse anti-human IL-23p19 antibody 20A4 (antibody, V domains shown)
VH: B1 VH with S9G, R40G, I59Y, N63K, A98S
VL: B1 VL with M3V, Y32F, A51V, E79D, I85V
In the case of B4, in assay [1], the “IC50 (pM), blocking” value stood at 5 pM. Further, the “Splenocyte assay IC50” value in assay [2] stood at 0.024 nM.

B5: mouse anti-human IL-23p19 antibody 1D6 (antibody, V domains shown)
VH: EVQLQQSGPDLVKPGASVKMSCKASGYTFTAYLIHWVKRSHGKSLDWIGYINPNDGVTSYNQKFKGKATLTVNKSSGTAYMELRSLTSEDAAVYYCTLNWDLDYWGQGTTLTVSS
VL: B1 VL with M3V, R37Q, N76T, S77N, Y96F, G100S
On to B5, for which the “IC50 (pM), blocking” value in assay [1] is 16 pM. Besides, the “Splenocyte assay IC50” value in assay [2] was found to be 0.027 nM.

B6: mouse anti-human IL-23p19 antibody 2C6 (antibody, V domains shown)
VH: B2 VH with N27Y, V33L, M34I, N35H, I51V, K65R, T77S, V97T, H98S, D103N
VL: B1 VL with M3V, H34Y, R37Q, I85V, Y87F, Y96F, G100S
As to B6, in assay [1], the “IC50 (pM), blocking” value worked out at 11 pM. Further, in assay [2], the “Splenocyte assay IC50” value came to 0.037 nM.

B7: mouse anti-human IL-23p19 antibody 2G12 (antibody, V domains shown)
VH: EVQLQQSGPELVKPGASVKMSCKASGYTFTCCILHWVKQKPGQGLEWIGYINPYNDGTKYNEKFKGKATLTSDKSSRTAYMELSSLTSEDSAVYYCARRWDEAYWGQGTLVTVSA
VL: B1 VL with M3V, D31A, R37Q, Y96F, G100S
As for B7, the “IC50 (pM), blocking” value in assay [1] was 183 pM. In assay [2], the “Splenocyte assay IC50” value turned out to be 0.106 nM.

B8: mouse anti-human IL-23p19 antibody 20H7 (antibody, V domains shown)
VH: B1 VH with S9G, S31N, N63K, S88F
VL: B1 VL with I85V, Y87F
Regarding B8, in assay [1], the “IC50 (pM), blocking” value came to 3 pM. For the same molecule, the “Splenocyte assay IC50” value in assay [2] came to 0.033 nM.

B9: mouse anti-human IL-23p19 antibody 15G2 (antibody, V domains shown)
VH: B2 VH with N27Y, R31N, V33L, N35H, T77S, V93I, Y95F, V97T, H98S
VL: B1 VL with M3V, R37Q, T72I, S74N, I85V
For B9, in assay [1], the “IC50 (pM), blocking” value is 133 pM. Also, in assay [2], the “Splenocyte assay IC50” value worked out at 0.095 nM.

B10: mouse anti-human IL-23p19 antibody 8E9 (antibody, V domains shown)
VH: EVQLQQSGPELVKPGASVKMSCKASGYTFTAYLIHWVKQSHGKSLEWIGYINPNNGGTNYNQKFKDKATLTVNKSSATAYMELRSLTSEDSAVFYCSSNWDLDYWGRGTTLTVSS
VL: DIVMTQSPATLSVTPGDRVSLSCRASQSIGDYLHWYQQKLHESPRLLIKYASRSISGIPSRFSGSGSGSYFTLSINSVEAEDVGVYFCQNGHSFPFTFGSGTKLEIKR
In the case of B10, the “IC50 (pM), blocking” value in assay [1] is 8 pM. The “Splenocyte assay IC50” value in assay [2] was 0.034 nM.
